We go through four proteins from publication PMC12959773 (Protein & Cell, 2025).

Series [1] deals with the molecule itself. Nature of the series: cryo-EM structure; apo state; SLC7A13 and SLC3A1 co-expressed in Expi293 cells, complex purified by affinity purification and SEC; overall resolution 2.64 Å.
Substrate in series [2]: N[C@@H](CSSC[C@H](N)C(=O)O)C(=O)O
The series can be described thus: cells, lysate or membranes. Particulars: cellular transport (Vmax given per cell).

Substrate in series [3]: N[C@@H](CSSC[C@H](N)C(=O)O)C(=O)O
The series can be described thus: cells, lysate or membranes. Format: cell-based, Homo sapiens. Particulars: cellular transport (Vmax given per cell).

B1: SLC3A1 (natural protein, human)
chain: AEDKSKRDSIEMSMKGCQTNNGFVHNEDILEQTPDPGSSTDNLKHSTRGILGSQEPDFKGVQPYAGMPKEVLFQFSGQARYRIPREILFWLTVASVLVLIAATIAIIALSPKCLDWWQEGPMYQIYPRSFKDSNKDGNGDLKGIQDKLDYITALNIKTVWITSFYKSSLKDFRYGVEDFREVDPIFGTMEDFENLVAAIHDKGLKLIIDFIPNHTSDKHIWFQLSRTRTGKYTDYYIWHDCTHENGKTIPPNNWLSVYGNSSWHFDEVRNQCYFHQFMKEQPDLNFRNPDVQEEIKEILRFWLTKGVDGFSLDAVKFLLEAKHLRDEIQVNKTQIPDTVTQYSELYHDFTTTQVGMHDIVRSFRQTMDQYSTEPGRYRFMGTEAYAESIDRTVMYYGLPFIQEADFPFNNYLSMLDTVSGNSVYEVITSWMENMPEGKWPNWMIGGPDSSRLTSRLGNQYVNVMNMLLFTLPGTPITYYGEEIGMGNIVAANLNESYDINTLRSKSPMQWDNSSNAGFSEASNTWLPTNSDYHTVNVDVQKTQPRSALKLYQDLSLLHANELLLNRGWFCHLRNDSHYVVYTRELDGIDRIFIVVLNFGESTLLNLHNMISGLPAKMRIRLSTNSADKGSKVDTSGIFLDKGEGLIFEHNTKNLLHRQTAFRDRCFVSNRACYSSVLNILYTSC
modifications: five glycosylation sites in the extracellular domain
notes: SLC3A1 (rBAT), human; heavy chain subunit: small N-terminal cytoplasmic region, a single TM and a large extracellular domain; Two copies stand in the solved hetero-tetramer; also called rBAT; heavy chain of the SLC7A13-SLC3A1 cystine transporter
What is called stoichiometry N is the number of molecules, sites or subunits per partner or assembly. Take B1: the “stoichiometry N” value in series [1] was 2.

B2: SLC7A9-SLC3A1 complex (Homo sapiens) (protein)
chain: MGDTGLRKRREDEKSIQSQEPKTTSLQKELGLISGISIIVGTIIGSGIFVSPKSVLSNTEAVGPCLIIWAACGVLATLGALCFAELGTMITKSGGEYPYLMEAYGPIPAYLFSWASLIVIKPTSFAIICLSFSEYVCAPFYVGCKPPQIVVKCLAAAAILFISTVNSLSVRLGSYVQNIFTAAKLVIVAIIIISGLVLLAQGNTKNFDNSFEGAQLSVGAISLAFYNGLWAYDGWNQLNYITEELRNPYRNLPLAIIIGIPLVTACYILMNVSYFTVMTATELLQSQAVAVTFGDRVLYPASWIVPLFVAFSTIGAANGTCFTAGRLIYVAGREGHMLKVLSYISVRRLTPAPAIIFYGIIATIYIIPGDINSLVNYFSFAAWLFYGLTILGLIVMRFTRKELERPIKVPVVIPVLMTLISVFLVLAPIISKPTWEYLYCVLFILSGLLFYFLFVHYKFGWAQKISKPITMHLQMLMEVVPPEEDPE
Broadly, the Km is the substrate concentration at which the rate is half of its maximum. Take B2: in series [2], the Km was 276.9 ± 107.6 µM.

B3: SLC7A11-SLC3A2 complex (Homo sapiens) (protein)
chain: MVRKPVVSTISKGGYLQGNVNGRLPSLGNKEPPGQEKVQLKRKVTLLRGVSIIIGTIIGAGIFISPKGVLQNTGSVGMSLTIWTVCGVLSLFGALSYAELGTTIKKSGGHYTYILEVFGPLPAFVRVWVELLIIRPAATAVISLAFGRYILEPFFIQCEIPELAIKLITAVGITVVMVLNSMSVSWSARIQIFLTFCKLTAILIIIVPGVMQLIKGQTQNFKDAFSGRDSSITRLPLAFYYGMYAYAGWFYLNFVTEEVENPEKTIPLAICISMAIVTIGYVLTNVAYFTTINAEELLLSNAVAVTFSERLLGNFSLAVPIFVALSCFGSMNGGVFAVSRLFYVASREGHLPEILSMIHVRKHTPLPAVIVLHPLTMIMLFSGDLDSLLNFLSFARWLFIGLAVAGLIYLRYKCPDMHRPFKVPLFIPALFSFTCLFMVALSLYSDPFSTGIGFVITLTGVPAYYLFIIWDKKPRWFRIMSEKITRTLQIILEVVPEEDKL
On to B3, for which the Km in series [2] is 67.57 ± 21.95 µM.

B4: SLC7A13-SLC3A1 complex (Homo sapiens) (protein)
chain: MDRGEKIQLKRVFGYWWGTSFLLINIIGAGIFVSPKGVLAYSCMNVGVSLCVWAGCAILAMTSTLCSAEISISFPCSGAQYYFLKRYFGSTVAFLNLWTSLFLGSGVVAGQALLLAEYSIQPFFPSCSVPKLPKKCLALAMLWIVGILTSRGVKEVTWLQIASSVLKVSILSFISLTGVVFLIRGKKENVERFQNAFDAELPDISHLIQAIFQGYFAYSGGACFTLIAGELKKPRTTIPKCIFTALPLVTVVYLLVNISYLTVLTPREILSSDAVAITWADRAFPSLAWIMPFAISTSLFSNLLISIFKSSRPIYLASQEGQLPLLFNTLNSHSSPFTAVLLLVTLGSLAIILTSLIDLINYIFFTGSLWSILLMIGILRRRYQEPNLSIPYKVFLSFPLATIVIDVGLVVIPLVKSPNVHYVYVLLLVLSGLLFYIPLIHFKIRLAWFEKMTCYLQLLFNICLPDVSEE
notes: heterodimeric light/heavy chain transporter, dimer of heterodimers; ectopically expressed in HEK293T / HEK293 cells (Expi293 for cryo-EM); with Amino acid transporter heavy chain SLC3A1
B4: in series [3], the Km was found to be 126.5 ± 33.25 µM.
